Drawing on US5945288, this text covers activity (units (total purified)) for 1 substance.

This series has as its system PmeI restriction endonuclease (Pseudomonas mendocina). Put plainly: cleavage_in_vitro. The settings on record: column fractions assayed on lambda DNA.

In the case of bacteriophage lambda DNA, the activity (units (total purified)) was 116000.
